Assay [1] has as its target FPA144-F (the fucosylated version of bemarituzumab) (human). In words: SPR. A general note: Surface plasmon resonance follows binding to a sensor surface in real time, without labels.
The target of the next assay is Bemarituzumab (human). As to the kind of experiment: SPR.

One substance from paper PMC8565817 can be followed below.

A word on the Kd: it is the concentration at which binding is half-saturated. A low value points to higher affinity.

On to human Fc gamma receptor IIIa (V158), for which the Kd in assay [1] was 207 nM; in the assay with Bemarituzumab (human), 9.2 nM.
